In assay [1] the target is T1, β Amyloid peptide 1-40 (human, UniProt P05067 672-711).
T1 construct: domain: β Amyloid peptide 1-40; Biotinylated peptide 1-40 (Biosource) on avidin Sepharose only captured free antibody in KinExA; also called Aβ 1-40; human Aβ (1-40)
Nature of the assay: KinExA, Fab, equilibration 24 h. How it is done: (§1) Typical 1× concentrations were 10 pM of antibody active sites (0.75 ng/mL) and an upper antigen concentration of 100 pM (0.43 ng/mL). The samples were then allowed to equilibrate for 24-72 hours at room temperature. A KinExA™ instrument (Sapidyne) and standard KD run file were then used to determine the KD of the system. Briefly, the KinExA™ flow cell was charged with the β Amyloid peptide coated beads and washed with PBSA. For the first sample, free antibody in solution was captured by the beads washed with PBSA and detected using 1:250 Goat anti-human Cy5 (Jackson Immunochemicals) in PBSA. The flow cell was then flushed, re-charged with beads and the next sample analyzed. The process was repeated until all 12 samples were analyzed.
(§2) For KinExA™ kₒₙ and koff measurements, antigen and antibody were prepared as described above. Antigen and antibody samples at 2× active concentration were prepared in PBSA with 0.2% BSA. Samples were mixed 1:1 and the timing for the experiment started. Typical 1× concentrations were 1 nM antibody active site concentration ([…]) and 2 nM antigen (8.6 ng/mL). A KinExA™ instrument (Sapidyne) and a kineticsdirect run file were used to follow the reaction. Time for each measurement was determined using the manufacturer's instructions. Free antibody remaining in the reaction was captured using β amyloid coated beads packed into the flow cell washed with PBSA and detected at each time point using 1:250 Goat anti-human Cy5 (Jackson) in PBSA. The flow cell was then flushed and recharged with beads for the next measurement, the process continued until a complete decay curve obtained. The data was analyzed using the KinExA™ Inject software.
In general terms: In KinExA the mixture passes briefly over coated beads that capture the unbound partner.

Assay [2] addresses T1, β Amyloid peptide 1-40. Nature of the assay: BIAcore, mAb captured, Aβ 1-40 injected, first set of preparations. How it is done: (§3) BIAcore™ is an automated biosensor system that measures molecular interactions (Karlsson, et al. (1991) J. Immunol. Methods 145: 229-240). BIAcore™ analyses described herein were carried out at 25° C. In these experiments, antibody was immobilized at low density on a BIAcore™ CM5 or B1 chip. For the m266 antibody goat anti-mouse Fc (Jackson Immunoresearch) immobilized on CM5 in flow cell 2 was used for measuring binding constants. Goat anti-mouse was used as control antibody in flow cell 1. For the humanized antibodies, protein A or protein A/G was immobilized via amine coupling to flow cells 1 and 2 of a B1 or CM5 sensor chip.
(§4) Antibody was then captured only to flow cell 2 at desired levels (usually a 10-60 second injection of antibody) and allowed to stabilize for 5 minutes. For these experiments, a fresh aliquot of Aβ 1-40 was thawed and then diluted 1:10 in HBS-EP running buffer. The 1:10 dilution was used to make up a 200 nM Aβ solution which was serially diluted (1:2 dilutions) to a lowest concentration of 6.25 nM. Each concentration was injected over the surface for 5 minutes at a flow rate of 50 μl/min (250 μl total). The Aβ and antibody were eluted from both flow cells with a 40s injection of glycine pH 1.5. The signal is allowed to stabilize for 2 minutes before the next cycle. The data from flow cell 1 is subtracted from flow cell 2 to account for any bulk shifts due to buffer differences or non-specific binding to the sensor chip or Protein A. The various concentrations were injected randomly and each concentration was run in duplicate. Two control runs of buffer only were used to control for any dissociation of antibody from the capture surface. The data was analyzed using the Biaevalution™ software. A 1:1 model with mass transfer and a local Rmax was used as the best fit for the data.
Concentrations of human Aβ (1-40) from 200 nM to 1.6 nM in 2-fold serial dilution were used to obtain on-rate constant. […]
(In general: In SPR one partner is held on a chip, and binding of the other changes the refractive index at the surface.)

Assay [3] has as its target T1, β Amyloid peptide 1-40. The assay is described as follows: KinExA, mAb; against m266. How it is done:
as §2
(§5) Association rate constants (kₒₙ) of m266 and antibodies of the present invention with Aβ were determined by KinExA™, using methods as described above in Example 1. The results of two separate kₒₙ determinations by KinExA™, in which separate preparations of antibodies were used, are provided in Tables 7 and 8.

Assay [4] deals with T1, β Amyloid peptide 1-40. The assay is described as follows: KinExA, mAb, average of the experiments. How it is done: as §2, §5
In assay [5] the target is T1, β Amyloid peptide 1-40. The assay is described as follows: KinExA, mAb, single experiment. How it is done:
as §2, §5

In assay [6] the target is T1, β Amyloid peptide 1-40. Nature of the assay: KinExA, mAb, single experiment, separate antigen preparation. How it is done: as §2
(§6) Association rate constants (kₒₙ) of m266 and antibodies of the present invention with Aβ were determined by KinExA™, using methods as described above in Example 1. […]
(§7) ^aNumbers in bold are the averages calculated from individual experiments. ^bA separate preparation of antibodies was used for these experiments. ^cA separate preparation of antigen was used for these experiments.

Assay [7] has as its target T1, β Amyloid peptide 1-40. The assay is described as follows: KinExA, mAb, single experiment. How it is done:
as §1
This is another data set of the same source.

Assay [8] has as its target T1, β Amyloid peptide 1-40. The assay is described as follows: KinExA, mAb, equilibration 24 h. How it is done:
as §1, §2

The target in assay [9] is T1, β Amyloid peptide 1-40. Nature of the assay: KinExA, mAb, average of the experiments. How it is done: as §2, §5
This is another data set of the same source.

For assay [10], the target named is T1, β Amyloid peptide 1-40. Nature of the assay: KinExA, mAb, single experiment, separate antibody preparation. How it is done:
as §2, §6, §7

The target of assay [11] is T1, β Amyloid peptide 1-40. The assay is described as follows: KinExA, mAb, average of the experiments. How it is done:
as §1
This is another data set of the same source.

Assay [12] addresses T1, β Amyloid peptide 1-40. Nature of the assay: KinExA, mAb, single experiment, separate antibody and antigen preparations. How it is done:
as §2, §6, §7

Assay [13] concerns the target T1, β Amyloid peptide 1-40. Nature of the assay: KinExA, mAb; against m266. How it is done: as §1
The source holds these as a separate data set.

Assay [14] concerns the target T1, β Amyloid peptide 1-40. Nature of the assay: BIAcore; against m266. How it is done: as §3, §4
Concentrations of human Aβ (1-40) from 200 nM to 1.6 nM in 2-fold serial dilution were used to obtain on-rate constant. The upper half of Table 6 represents determinations made with a first set of antibody preparations, while the lower half represents determinations made with a second set of antibody preparations

The target of assay [15] is T1, β Amyloid peptide 1-40. The assay is described as follows: KinExA, mAb, single experiment. How it is done: as §2, §5
This is another data set of the same source.

Assay [16] concerns the target T1, β Amyloid peptide 1-40. Nature of the assay: KinExA, mAb, equilibration 16 h. How it is done:
as §1, with “The samples were then allowed to equilibrate for 24-72 hours at room temperature.” left out
as §2

Assay [17] has as its target T1, β Amyloid peptide 1-40. The assay is described as follows: BIAcore, mAb captured, Aβ 1-40 injected, second set of preparations. How it is done:
as §3
Antibody was then captured only to flow cell 2 at desired levels (usually a 10-60 second injection of antibody) and allowed to stabilize for 5 minutes. For these experiments, a fresh aliquot of Aβ 1-40 was thawed and then diluted 1:10 in HBS-EP running buffer. The 1:10 dilution was used to make up a 200 nM Aβ solution which was serially diluted (1:2 dilutions) to a lowest concentration of 6.25 nM. Each concentration was injected over the surface for 5 minutes at a flow rate of 50 μl/min (250 μl total). The Aβ and antibody were eluted from both flow cells with a 40s injection of glycine pH 1.5. The signal is allowed to stabilize for 2 minutes before the next cycle. […] The data was analyzed using the Biaevalution™ software. […]

The target of assay [18] is T1, β Amyloid peptide 1-40. The assay is described as follows: KinExA, Fab, equilibration 16 h. How it is done:
as §1, with “The samples were then allowed to equilibrate for 24-72 hours at room temperature.” left out
as §2

The target in assay [19] is T1, β Amyloid peptide 1-40. The assay is described as follows: KinExA, mAb. How it is done: as §1

Where a chain is given by its changes, count along the chain named. Values joined by “and” are separate entries in the source; they are usually repeats but may differ in a detail not shown here. Identical values can stand only once.

T1 sequence (P05067 672-711 limits assumed): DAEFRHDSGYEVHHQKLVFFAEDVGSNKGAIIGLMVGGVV

B1: 1A1 Fab (Fab, V domains shown)
VH: EVQLVESGGGLVKPGGSLRLSCAASGYTFSRYSMSWVRQAPGKGLEWVGQINIRGNNTYYPDTVKGRFTISRDDSKNTLYLQMNSLKTEDTAVYYCTTGDFWGQGTLVTVSS
VL: DIVMTQTPLSLSVTPGQPASISCSSSQSLIYSDGNAYLHWYLQKPGQSPQLLIYKVSNRFSGVPDRFSGSGSGTDFTLKISRVEAEDVGVYYCTQSTHSPWTFGGGTKVEIK
notes: Fab clone
In the assay with β Amyloid peptide 1-40 [1], B1 gave an equilibrium dissociation constant (Kd) of 1.9 pM, a koff of 1.6e-06 s⁻¹ and a kon of 830000 M⁻¹ s⁻¹.

B2: 1A1 monoclonal antibody (IgG1) (antibody, V domains shown)
VH: B1 VH
VL: B1 VL
As to B2, the on-rate (kon) with β Amyloid peptide 1-40 [2] is 390000 M⁻¹ s⁻¹; with β Amyloid peptide 1-40 [4], 510000 M⁻¹ s⁻¹; in the assay with β Amyloid peptide 1-40 [5] it was 1.06e+06 M⁻¹ s⁻¹ and 954000 M⁻¹ s⁻¹ and 912000 M⁻¹ s⁻¹ and 883000 M⁻¹ s⁻¹; with β Amyloid peptide 1-40 [6], 976000 M⁻¹ s⁻¹; in the assay with β Amyloid peptide 1-40 [8], 880000 M⁻¹ s⁻¹; with β Amyloid peptide 1-40 [9] it was 913000 M⁻¹ s⁻¹. The association rate constant (kon) was 762000 M⁻¹ s⁻¹ in the assay with β Amyloid peptide 1-40 [10]; 851000 M⁻¹ s⁻¹ with β Amyloid peptide 1-40 [12]; 580000 M⁻¹ s⁻¹ and 550000 M⁻¹ s⁻¹ and 390000 M⁻¹ s⁻¹ in the assay with β Amyloid peptide 1-40 [15]. Moreover, the “Fold increase in kon” value with β Amyloid peptide 1-40 [3] is 2 fold. Further, the Kd is 3.2 pM and 5.7 pM in the assay with β Amyloid peptide 1-40 [7]; 1.2 pM with β Amyloid peptide 1-40 [8]; 4.5 pM with β Amyloid peptide 1-40 [11]. This molecule returned a koff with β Amyloid peptide 1-40 [8] of 1.1e-06 s⁻¹. Besides, the “Fold increase in affinity” value with β Amyloid peptide 1-40 [13] came out at 17 fold. In the assay with β Amyloid peptide 1-40 [14], the “Fold Increase (kon)” value was found to be 3 fold.

B3: 1C5 monoclonal antibody (IgG1) (antibody, V domains shown)
VH: B1 VH with Y27F, I53S, R54V, G55A, N57S
VL: B1 VL with S24R, T94S
In the assay with β Amyloid peptide 1-40 [16], B3 displayed a Kd of 973 pM, a koff of 0.000371 s⁻¹ and a kon of 420000 M⁻¹ s⁻¹.

B4: 1A12 monoclonal antibody (IgG1) (antibody, V domains shown)
VH: B1 VH with Y27F
VL: B1 VL with S24R, T94S
On to B4, for which, in the assay with β Amyloid peptide 1-40 [17], the kon stood at 410000 M⁻¹ s⁻¹. The “Fold Increase (kon)” value with β Amyloid peptide 1-40 [14] is 3 fold.

B5: 1A12 Fab (Fab, V domains shown)
VH: B1 VH with Y27F
VL: B1 VL with S24R, T94S
notes: Fab clone
In the assay with β Amyloid peptide 1-40 [18], B5 came in with an equilibrium dissociation constant (Kd) of 10.8 pM, an off-rate (koff) of 1.72e-05 s⁻¹ and a kon of 1.59e+06 M⁻¹ s⁻¹.

B6: 1D4 monoclonal antibody (IgG1) (antibody, V domains shown)
VH: B1 VH with Y27F, I53S, R54Q, N57S, F101R
VL: B1 VL with S24R, T94S
As for B6, the kon with β Amyloid peptide 1-40 [2] amounted to 470000 M⁻¹ s⁻¹. Further, the “Fold increase in affinity” value in the assay with β Amyloid peptide 1-40 [13] was 0.005 fold. Besides, the equilibrium dissociation constant (Kd) with β Amyloid peptide 1-40 [19] was 15100 pM. In the assay with β Amyloid peptide 1-40 [16], this molecule came in with a Kd of 6310 pM, an off-rate (koff) of 0.00074 s⁻¹ and an association rate constant (kon) of 120000 M⁻¹ s⁻¹. The “Fold Increase (kon)” value with β Amyloid peptide 1-40 [14] is 4 fold.

B7: 6C3 monoclonal antibody (IgG1) (antibody, V domains shown)
VH: B1 VH with Y27F, I53S, N57S
VL: B1 VL with S24R
Turning to B7, in the assay with β Amyloid peptide 1-40 [17], the association rate constant (kon) stood at 610000 M⁻¹ s⁻¹. In the assay with β Amyloid peptide 1-40 [16], this molecule registered a Kd of 7.9 pM, a dissociation rate constant (koff) of 1.01e-05 s⁻¹ and a kon of 1.28e+06 M⁻¹ s⁻¹. Also, the “Fold Increase (kon)” value with β Amyloid peptide 1-40 [14] turned out to be 5 fold.

B8: m266 Fab fragment (Fab, V domains shown)
VH: EVKLVESGGGLVQPGGSLKLSCAVSGFTFSRYSMSWVRQTPEKRLELVAQINSVGNSTYYPDTVKGRFTISRDNAEYTLSLQMSGLRSDDTATYYCASGDYWGQGTTLTVSS
VL: DVVMTQTPLSLPVSLGDQASISCRSSQSLIYSDGNAYLHWFLQKPGQSPKLLIYKVSNRFSGVPDRFSGSGSGTDFTLKISRVETEDLGVYFCSQSTHVPWTFGGGTKLEIK
For B8, in the assay with β Amyloid peptide 1-40 [18], the affinity, expressed as Kd, was 138 pM; the koff worked out at 4.96e-05 s⁻¹; the kon amounted to 360000 M⁻¹ s⁻¹.

What is called Kd is the concentration at which binding is half-saturated. Lower therefore signals higher affinity. The term koff denotes the first-order rate constant of dissociation. Low values mean slow dissociation, high ones fast dissociation. What is called kon is the rate constant with which the complex forms. The low end stands for slow association, the high end for fast association.

(Values after US20060110388A1 (APPLIED MOLECULAR EVOLUTION, published 2006).)
